The values that follow come from article PMC10450178.

Assay in all cases: BLI
In general terms: BLI is a label-free optical method that tracks binding on a fibre tip over time.

In data set [1] the test system is BG4 anti-G4 antibody. The settings on record: Buffer R: 20 mM HEPES pH 7.4-7.5, 20 mM NaOAc, 140 mM KOAc, 3 mM Mg(OAc)2, 0.1% Tween20, SPR at 20 C, BLI temperature not ….
Data set [2] concerns Gmab anti-G4 antibody fragment (human (Garvan-2 scFv library)). Particulars: Buffer R: 20 mM HEPES pH 7.4-7.5, 20 mM NaOAc, 140 mM KOAc, 3 mM Mg(OAc)2, 0.1% Tween20, SPR at 20 C, BLI temperature not ….
Data set [3] has as its target hen egg-white lysozyme (HEL) (Gallus gallus) (UniProt P00698). Particulars: Buffer R: 20 mM HEPES pH 7.5, 20 mM NaOAc, 140 mM KOAc, 3 mM Mg(OAc)2, 0.1% Tween20, BLI temperature not stated, low values mean tight binding.

As usually defined, the Kd is the equilibrium constant for the complex coming apart. A low value points to a tighter complex.

Sequence of hen egg-white lysozyme (HEL) (Gallus gallus) (P00698 19-147): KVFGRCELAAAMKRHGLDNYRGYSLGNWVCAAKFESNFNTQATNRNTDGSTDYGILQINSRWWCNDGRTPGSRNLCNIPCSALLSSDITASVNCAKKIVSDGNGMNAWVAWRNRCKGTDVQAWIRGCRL

Consider CGGGCGGGCGCGAGGGAGGGG [KIT2 G4], for which the Kd in data set [1] (ka 7.9e4 M-1s-1, kd 1.5e-4 s-1) turned out to be 0.0019 µM; in data set [2] (ka 7.5e4 M-1s-1, kd 2.7e-4 s-1) it was 0.0036 µM.

Turning to “GTGCTGTTCGTTTAAATGTGTGTCGTCGTTCGCTATCC [LYS-S8-19-core14 (HNA)]”, the dissociation constant (Kd) in data set [1] (all-HNA (1',5'-anhydrohexitol)) is 0.0053 µM; in data set [2] (all-HNA (1',5'-anhydrohexitol)) it was 0.0323 µM; in data set [3] (all-HNA (1',5'-anhydrohexitol)) it was 0.0488 µM.

On to “GTTCGTTTAAATATGTGTCGTCGTTCGCTATCC [core13 G13A]”, for which, in data set [3] (all-HNA), the Kd is 0.0979 µM.

Sequence “GTTCGTTTAAATGTGTGTCGTCGTTCACTATCC [core13 G27A]” came in with a Kd in data set [3] (all-HNA) of 0.00928 µM.

In data set [3] (all-HNA), “GTTCGTTTAAATGTGTGTCGTCGTTCCCTATCC [core13 G27C]” came in with a Kd of 0.116 µM.

Consider “GTTCGTTTAAATGTGTGTCGTCGTTCGCTATCC [LYS-S8-19-core13 (HNA)]”, for which the Kd is 0.118 µM in data set [2] (ka 8.47e4, kd 1.00e-2, all-HNA) and 0.0688 µM in data set [3] (all-HNA).
